Source: patent publication US20240209076A1 (KODIAK SCIENCES, published 2024)

target: T1, recombinant human IL-6 (human, UniProt P05231 30-212); assay: SPR (Biacore), supernatant IgG on Protein A, 25 C
T1 construct: Flowed in solution over the captured antibodies
Description: Antibodies were captured on a Protein A chip (GE) by injecting 1:20 dilution of cell supernatant at 10 μL/min for 60 seconds. […] The sensor chip was regenerated by a 60 seconds injection of 10 mM Glycine pH 1.7 at flow rate of 50 μL/min. […] For this setup, 1 μg/mL of purified antibody was injected over a Protein A chip at 10 μL/min for 25-28 seconds. Data analysis for supernatant and purified samples were performed using BIAevaluation software (GE). All sensorgrams were double reference subtracted and fit using a 1:1 Langmuir binding model.

T1 sequence (P05231 30-212 limits assumed): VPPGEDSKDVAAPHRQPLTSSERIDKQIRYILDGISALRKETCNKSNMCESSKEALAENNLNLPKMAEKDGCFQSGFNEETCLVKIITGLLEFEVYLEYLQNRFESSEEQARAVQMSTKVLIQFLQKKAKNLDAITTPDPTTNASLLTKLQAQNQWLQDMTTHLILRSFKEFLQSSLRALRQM

Row | Binder | Kd | koff | kon
1 | anti-IL-6 antibody, heavy chain V64A, light chain WT (antibody, IgG1, V domains shown, Full IgG1 tested; V domains derived as in m2) VH: EVQLVESGGGLVQPGGSLRLSCAASGFTFSPFAMSWVRQAPGKGLEWVAKISPGGSWTYYSDTATGRFTFSLDTSKSTAYLQMNSLRAEDTAVYYCARQLWGYYALDIWGQGTLVTVSS VL: DIQLTQSPSSLSASVGDRVTITCSASISVSYMYWYQQKPGKAPKLLIYDMSNLASGVPSRFSGSGSGTDFTLTISSLQPEDFATYYCMQWSGYPYTFGQGTKVEIK | 0.402 nM | 0.000178 s⁻¹ | 444000 M⁻¹ s⁻¹
2 | anti-IL-6 antibody, heavy chain WT, light chain S26H (antibody, IgG1, V domains shown, Full IgG1 tested; V domains derived as in m2) VH: EVQLVESGGGLVQPGGSLRLSCAASGFTFSPFAMSWVRQAPGKGLEWVAKISPGGSWTYYSDTVTGRFTFSLDTSKSTAYLQMNSLRAEDTAVYYCARQLWGYYALDIWGQGTLVTVSS VL: DIQLTQSPSSLSASVGDRVTITCSAHISVSYMYWYQQKPGKAPKLLIYDMSNLASGVPSRFSGSGSGTDFTLTISSLQPEDFATYYCMQWSGYPYTFGQGTKVEIK | 0.36 nM | 0.000149 s⁻¹ | 415000 M⁻¹ s⁻¹
3 | anti-IL-6 antibody, heavy chain WT, light chain S24I (antibody, IgG1, V domains shown, Full IgG1 tested; V domains derived as in m2) VH: EVQLVESGGGLVQPGGSLRLSCAASGFTFSPFAMSWVRQAPGKGLEWVAKISPGGSWTYYSDTVTGRFTFSLDTSKSTAYLQMNSLRAEDTAVYYCARQLWGYYALDIWGQGTLVTVSS VL: DIQLTQSPSSLSASVGDRVTITCIASISVSYMYWYQQKPGKAPKLLIYDMSNLASGVPSRFSGSGSGTDFTLTISSLQPEDFATYYCMQWSGYPYTFGQGTKVEIK | 0.284 nM | 0.000135 s⁻¹ | 476000 M⁻¹ s⁻¹
4 | anti-IL-6 antibody, heavy chain WT, light chain S28E (antibody, IgG1, V domains shown, Full IgG1 tested; V domains derived as in m2) VH: EVQLVESGGGLVQPGGSLRLSCAASGFTFSPFAMSWVRQAPGKGLEWVAKISPGGSWTYYSDTVTGRFTFSLDTSKSTAYLQMNSLRAEDTAVYYCARQLWGYYALDIWGQGTLVTVSS VL: DIQLTQSPSSLSASVGDRVTITCSASIEVSYMYWYQQKPGKAPKLLIYDMSNLASGVPSRFSGSGSGTDFTLTISSLQPEDFATYYCMQWSGYPYTFGQGTKVEIK | 0.289 nM | 0.000121 s⁻¹ | 420000 M⁻¹ s⁻¹
5 | anti-IL-6 antibody, heavy chain WT, light chain S24P (antibody, IgG1, V domains shown, Full IgG1 tested; V domains derived as in m2) VH: EVQLVESGGGLVQPGGSLRLSCAASGFTFSPFAMSWVRQAPGKGLEWVAKISPGGSWTYYSDTVTGRFTFSLDTSKSTAYLQMNSLRAEDTAVYYCARQLWGYYALDIWGQGTLVTVSS VL: DIQLTQSPSSLSASVGDRVTITCPASISVSYMYWYQQKPGKAPKLLIYDMSNLASGVPSRFSGSGSGTDFTLTISSLQPEDFATYYCMQWSGYPYTFGQGTKVEIK | 0.00551 nM | 2.67e-06 s⁻¹ | 484000 M⁻¹ s⁻¹
6 | anti-IL-6 antibody, heavy chain Y103D, light chain WT (antibody, IgG1, V domains shown, Full IgG1 tested; V domains derived as in m2) VH: EVQLVESGGGLVQPGGSLRLSCAASGFTFSPFAMSWVRQAPGKGLEWVAKISPGGSWTYYSDTVTGRFTFSLDTSKSTAYLQMNSLRAEDTAVYYCARQLWGDYALDIWGQGTLVTVSS VL: DIQLTQSPSSLSASVGDRVTITCSASISVSYMYWYQQKPGKAPKLLIYDMSNLASGVPSRFSGSGSGTDFTLTISSLQPEDFATYYCMQWSGYPYTFGQGTKVEIK | 0.297 nM | 0.000219 s⁻¹ | 737000 M⁻¹ s⁻¹

Second part, the binder after the results:

Row | Kd | koff | kon | Binder
7 | 0.346 nM | 0.000159 s⁻¹ | 460000 M⁻¹ s⁻¹ | anti-IL-6 antibody, heavy chain V48I, light chain WT (antibody, IgG1, V domains shown, Full IgG1 tested; V domains derived as in m2) VH: EVQLVESGGGLVQPGGSLRLSCAASGFTFSPFAMSWVRQAPGKGLEWIAKISPGGSWTYYSDTVTGRFTFSLDTSKSTAYLQMNSLRAEDTAVYYCARQLWGYYALDIWGQGTLVTVSS VL: DIQLTQSPSSLSASVGDRVTITCSASISVSYMYWYQQKPGKAPKLLIYDMSNLASGVPSRFSGSGSGTDFTLTISSLQPEDFATYYCMQWSGYPYTFGQGTKVEIK
8 | 0.464 nM | 0.000171 s⁻¹ | 369000 M⁻¹ s⁻¹ | anti-IL-6 antibody, heavy chain WT, light chain S28R (antibody, IgG1, V domains shown, Full IgG1 tested; V domains derived as in m2) VH: EVQLVESGGGLVQPGGSLRLSCAASGFTFSPFAMSWVRQAPGKGLEWVAKISPGGSWTYYSDTVTGRFTFSLDTSKSTAYLQMNSLRAEDTAVYYCARQLWGYYALDIWGQGTLVTVSS VL: DIQLTQSPSSLSASVGDRVTITCSASIRVSYMYWYQQKPGKAPKLLIYDMSNLASGVPSRFSGSGSGTDFTLTISSLQPEDFATYYCMQWSGYPYTFGQGTKVEIK
9 | 0.229 nM | 0.000165 s⁻¹ | 718000 M⁻¹ s⁻¹ | anti-IL-6 antibody, heavy chain Y103E, light chain WT (antibody, IgG1, V domains shown, Full IgG1 tested; V domains derived as in m2) VH: EVQLVESGGGLVQPGGSLRLSCAASGFTFSPFAMSWVRQAPGKGLEWVAKISPGGSWTYYSDTVTGRFTFSLDTSKSTAYLQMNSLRAEDTAVYYCARQLWGEYALDIWGQGTLVTVSS VL: DIQLTQSPSSLSASVGDRVTITCSASISVSYMYWYQQKPGKAPKLLIYDMSNLASGVPSRFSGSGSGTDFTLTISSLQPEDFATYYCMQWSGYPYTFGQGTKVEIK
10 | 0.403 nM | 0.000137 s⁻¹ | 340000 M⁻¹ s⁻¹ | anti-IL-6 antibody, heavy chain WT, light chain S24V (antibody, IgG1, V domains shown, Full IgG1 tested; V domains derived as in m2) VH: EVQLVESGGGLVQPGGSLRLSCAASGFTFSPFAMSWVRQAPGKGLEWVAKISPGGSWTYYSDTVTGRFTFSLDTSKSTAYLQMNSLRAEDTAVYYCARQLWGYYALDIWGQGTLVTVSS VL: DIQLTQSPSSLSASVGDRVTITCVASISVSYMYWYQQKPGKAPKLLIYDMSNLASGVPSRFSGSGSGTDFTLTISSLQPEDFATYYCMQWSGYPYTFGQGTKVEIK
11 | 0.433 nM | 0.000164 s⁻¹ | 379000 M⁻¹ s⁻¹ | anti-IL-6 antibody, heavy chain WT, light chain S26K (antibody, IgG1, V domains shown, Full IgG1 tested; V domains derived as in m2) VH: EVQLVESGGGLVQPGGSLRLSCAASGFTFSPFAMSWVRQAPGKGLEWVAKISPGGSWTYYSDTVTGRFTFSLDTSKSTAYLQMNSLRAEDTAVYYCARQLWGYYALDIWGQGTLVTVSS VL: DIQLTQSPSSLSASVGDRVTITCSAKISVSYMYWYQQKPGKAPKLLIYDMSNLASGVPSRFSGSGSGTDFTLTISSLQPEDFATYYCMQWSGYPYTFGQGTKVEIK
12 | 0.21 nM | 0.000138 s⁻¹ | 654000 M⁻¹ s⁻¹ | anti-IL-6 antibody, heavy chain V48Q, light chain WT (antibody, IgG1, V domains shown, Full IgG1 tested; V domains derived as in m2) VH: EVQLVESGGGLVQPGGSLRLSCAASGFTFSPFAMSWVRQAPGKGLEWQAKISPGGSWTYYSDTVTGRFTFSLDTSKSTAYLQMNSLRAEDTAVYYCARQLWGYYALDIWGQGTLVTVSS VL: DIQLTQSPSSLSASVGDRVTITCSASISVSYMYWYQQKPGKAPKLLIYDMSNLASGVPSRFSGSGSGTDFTLTISSLQPEDFATYYCMQWSGYPYTFGQGTKVEIK
13 | 0.424 nM | 0.000132 s⁻¹ | 311000 M⁻¹ s⁻¹ | anti-IL-6 antibody, heavy chain WT, light chain S24K (antibody, IgG1, V domains shown, Full IgG1 tested; V domains derived as in m2) VH: EVQLVESGGGLVQPGGSLRLSCAASGFTFSPFAMSWVRQAPGKGLEWVAKISPGGSWTYYSDTVTGRFTFSLDTSKSTAYLQMNSLRAEDTAVYYCARQLWGYYALDIWGQGTLVTVSS VL: DIQLTQSPSSLSASVGDRVTITCKASISVSYMYWYQQKPGKAPKLLIYDMSNLASGVPSRFSGSGSGTDFTLTISSLQPEDFATYYCMQWSGYPYTFGQGTKVEIK
14 | 0.281 nM | 0.000223 s⁻¹ | 793000 M⁻¹ s⁻¹ | anti-IL-6 antibody, heavy chain WT, light chain S26G (antibody, IgG1, V domains shown, Full IgG1 tested; V domains derived as in m2) VH: EVQLVESGGGLVQPGGSLRLSCAASGFTFSPFAMSWVRQAPGKGLEWVAKISPGGSWTYYSDTVTGRFTFSLDTSKSTAYLQMNSLRAEDTAVYYCARQLWGYYALDIWGQGTLVTVSS VL: DIQLTQSPSSLSASVGDRVTITCSAGISVSYMYWYQQKPGKAPKLLIYDMSNLASGVPSRFSGSGSGTDFTLTISSLQPEDFATYYCMQWSGYPYTFGQGTKVEIK
